Experimental data taken from patent publication US20230265179A1.

Tests used:
[1] = target: CD40L over-expressed on Expi293 cells (UniProt P29965); experiment: flow cytometry, 100 nM antibody, CD40L-Expi293 vs parent Expi293 cells
CD40L = CD40L (UniProt P29965); experiment: flow cytometry, 100 nM IgG, CD40L over-expressing Expi293 cells over parent Expi293 cells
CD40L, sequence (P29965 whole entry): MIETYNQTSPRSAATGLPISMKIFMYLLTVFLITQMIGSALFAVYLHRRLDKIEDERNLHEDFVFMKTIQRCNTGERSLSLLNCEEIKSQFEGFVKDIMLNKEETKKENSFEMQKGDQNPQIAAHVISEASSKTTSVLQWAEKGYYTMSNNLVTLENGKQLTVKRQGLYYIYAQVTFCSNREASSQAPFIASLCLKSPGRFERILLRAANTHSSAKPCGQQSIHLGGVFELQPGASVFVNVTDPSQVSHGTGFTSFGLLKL

CD40L over-expressed on Expi293 cells, sequence (P29965 whole entry): as above

Row | Binder | 100 nM FACS (MFI Ratio) [1] | 100 nM FACS (MFI Ratio) (CD40L)
1 | CD40L-154 (VHH) VHH: EVQLVESGGGLVQPGGSLRLSCAASGRTSRSYEMGWFRQAPGKEREFVAAIDWDGSRTQYADSVKGRFTISADNSKNTAYLQMNSLKPEDTAVYYCAVPRETGWDGDWGQGTLVTVSS | 1.9 | 
2 | CD40L-182 (antibody, V domains shown) VH: EVQLLESGGGLVQPGGSLRLSCAASGGYNFRDYMHWVRQAPGKGLEWVSYISSSGSSTYYADSVKGRFTISRDNSKNTLYLQMNSLRAEDTAVYYCAKNLGQGFDYWGQGTLVTVSS VL: DIQMTQSPSSLSASVGDRVTITCSGDNLGDKYVHWYQQKPGKAPKLLIYGKKNRPSGVPSRFSGSGSGTDFTLTISSLQPEDFATYYCQAWDRTVVFGQGTKVEIK | 1.8 | 
3 | CD40L-141 (VHH) VHH: EVQLVESGGGLVQPGGSLRLSCAASGGTLDDYAMGWFRQAPGKEREFLASVSWGFGSTYYADSVKGRFTISADNSKNTAYLQMNSLKPEDTAVYYCAKDGGSYGMDVWGQGTLVTVSS | 2 | 
4 | CD40L-385 (antibody, V domains shown) VH: EVQLLESGGGLVQPGGSLRLSCAASGFTFSNYAMSWVRQAPGKGLEWVSAITGSGSTTYYADSVKGRFTISRDNSKNTLYLQMNSLRAEDTAVYYCARAHDYDSMLMDYWGQGTLVTVSS VL: DIQMTQSPSSLSASVGDRVTITCRASQSIKSYLNWYQQKPGKAPKLLIYSASSLLSGVPSRFSGSGSGTDFTLTISSLQPEDFATYYCQQSYTLPRTFGGGTKVEIK |  | 1.9 MFI ratio
5 | CD40L-421 (antibody, V domains shown) VH: EVQLLESGGGLVQPGGSLRLSCAASGFTFSKYAMNWVRQAPGKGLEWVSAISGSGESTYYADSVKGRFTISRDNSKNTLYLQMNSLRAEDTAVYYCATDYGDYDRLNFDLWGQGTLVTVSS VL: DIQMTQSPSSLSASVGDRVTITCRGSQSISSFLNWYQQKPGKAPKLLIYAASKLHSGVPSRFSGSGSGTDFTLTISSLQPEDFATYYCQHSYSTPLTFGGGTKVEIK |  | 1.9 MFI ratio
6 | CD40L-410 (antibody, V domains shown) VH: EVQLLESGGGLVQPGGSLRLSCAASGFTFRTYAMGWVRQAPGKGLEWVSAISGSGGIAYYADSVKGRFTISRDNSKNTLYLQMNSLRAEDTAVYYCARHYYYDSSDAFDIWGQGTLVTISS VL: DIQMTQSPFSLSASVGDRVTITCRASQNILTYLNWYQQKPGKAPKLLIYGASTLRSGVPSRFSGSGSGTDFTLTISSLQPEDFATYYCQQSYRLPLTFGGGTKVEIK |  | 1.8 MFI ratio
7 | CD40L-401 (antibody, V domains shown) VH: EVQLLESGGGLVQPGGSLRLSCAASGFTFGNYAMTWVRQAPGKGLEWVSAISGLGGSTYYADSVKGRFTISRDNSKNTLYLQMNSLRAEDTAVYYCTSSDPTYYYDSNGKSSLGMDVWGQGTLVTVSS VL: DIQMTQSPSSLSASVGDRVTITCRGSQSISSFLNWYQQKPGKAPKLLIYAASKLHSGVPSRFSGSGSGTDFTLTISSLQPEDFATYYCQHSYSTPLTFGGGTKVEIK |  | 1.8 MFI ratio
8 | CD40L-417 (antibody, V domains shown) VH: EVQLLESGGGLVQPGGSLRLSCAASGFTFSKYAMNWVRQAPGKGLEWVSAISGSGESTYYADSVKGRFTISRDNSKNTLYLQMNSLRAEDTAVYYCARHGGYYYYYMDVWGQGTLVTVSS VL: DIQMTQSPSSLSASVGDRVTITCRGSQSISSFLNWYQQKPGKAPKLLIYAASKLHSGVPSRFSGSGSGTDFTLTISSLQPEDFATYYCQHSYSTPLTFGGGTKVEIK |  | 1.7 MFI ratio
9 | CD40L-392 (antibody, V domains shown) VH: EVQLLESGGGLVQPGGSLRLSCAASGFTFSSFDMTWVRQAPGKGLEWVSGISGSGGTTFYADSVKGRFTISRDNSKNTLYLQMNSLRAEDTAVYYCVRDVSDIYGYLDDAFDIWGQGTLVTVSS VL: DIQMTQSPSSLSASVGDRVTITCRASQDIRNYLNWYQQKPGKAPKLLIYATSSLQTGVPSRFSGSGSGTDFTLTISSLQPEDFATYYCQQSYGAPLTFGGGTKVEIK |  | 2 MFI ratio
